Assay results reported in PMC4586518 (2015).

Target: Melanocortin-1 receptor (MC-1R) (Mus musculus, UniProt Q01727)
Experiment: radioligand competition binding with [125I]-α-MSH on B16 cells

Sequence of Melanocortin-1 receptor (MC-1R) (Q01727 whole entry): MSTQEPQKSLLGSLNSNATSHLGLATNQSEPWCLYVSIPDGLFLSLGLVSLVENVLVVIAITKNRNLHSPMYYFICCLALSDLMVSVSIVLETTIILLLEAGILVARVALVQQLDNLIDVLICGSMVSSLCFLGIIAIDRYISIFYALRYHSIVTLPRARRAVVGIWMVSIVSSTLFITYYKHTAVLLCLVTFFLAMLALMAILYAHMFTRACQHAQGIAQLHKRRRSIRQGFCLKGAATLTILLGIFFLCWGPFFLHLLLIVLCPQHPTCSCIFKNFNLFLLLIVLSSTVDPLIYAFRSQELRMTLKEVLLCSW

B1: ACTH(1-8) (peptide)
chain: SYSMEHFR
How did the Kd turn out when B1 was run?
The Kd was 88 nM.
